Laboratory results taken from patent US20130184211A1 (NEW YORK UNIVERSITY, published 2013).
Values belong to the binder of their own block, whether it stands above or below them.

Target: T1, 1:1 binary complex of the ectodomains of FGFR1c and Klotho (human; murine, UniProt O35082 35-982)
T1 construct: range 35-982; also called FGFR1c-Klotho complex; binary FGFR1c-Klotho complex; not shown: C-terminal FLAG tag
T1 sequence 1: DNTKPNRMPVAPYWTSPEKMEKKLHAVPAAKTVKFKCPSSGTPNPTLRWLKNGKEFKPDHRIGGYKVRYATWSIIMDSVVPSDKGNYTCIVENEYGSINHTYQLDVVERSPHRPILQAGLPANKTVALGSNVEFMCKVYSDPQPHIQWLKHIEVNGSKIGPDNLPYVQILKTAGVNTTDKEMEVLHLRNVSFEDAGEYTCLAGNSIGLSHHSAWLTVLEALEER
T1 sequence 2: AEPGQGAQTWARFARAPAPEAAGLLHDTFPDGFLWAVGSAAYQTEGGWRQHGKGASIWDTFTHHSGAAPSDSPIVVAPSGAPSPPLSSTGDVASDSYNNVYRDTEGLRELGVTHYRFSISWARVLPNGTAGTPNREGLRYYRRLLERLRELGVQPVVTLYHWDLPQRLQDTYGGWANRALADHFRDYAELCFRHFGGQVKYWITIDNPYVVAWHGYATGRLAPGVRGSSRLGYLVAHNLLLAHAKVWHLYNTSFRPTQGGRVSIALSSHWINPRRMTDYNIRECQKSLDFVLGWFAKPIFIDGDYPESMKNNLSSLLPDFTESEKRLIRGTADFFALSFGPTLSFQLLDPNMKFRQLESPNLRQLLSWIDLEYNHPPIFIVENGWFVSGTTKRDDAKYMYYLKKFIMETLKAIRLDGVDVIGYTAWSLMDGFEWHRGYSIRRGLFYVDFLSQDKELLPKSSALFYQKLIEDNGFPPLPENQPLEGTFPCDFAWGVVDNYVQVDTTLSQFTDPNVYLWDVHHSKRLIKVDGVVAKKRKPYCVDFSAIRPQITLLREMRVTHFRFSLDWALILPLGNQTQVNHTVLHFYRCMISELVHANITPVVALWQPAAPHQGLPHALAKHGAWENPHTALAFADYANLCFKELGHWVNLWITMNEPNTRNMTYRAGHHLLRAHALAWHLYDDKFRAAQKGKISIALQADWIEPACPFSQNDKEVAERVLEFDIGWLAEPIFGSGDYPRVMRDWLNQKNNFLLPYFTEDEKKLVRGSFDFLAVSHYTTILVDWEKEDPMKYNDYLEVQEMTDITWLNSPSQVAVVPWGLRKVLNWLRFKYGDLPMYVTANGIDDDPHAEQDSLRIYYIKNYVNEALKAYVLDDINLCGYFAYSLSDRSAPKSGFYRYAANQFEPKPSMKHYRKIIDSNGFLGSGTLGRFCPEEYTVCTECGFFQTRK
Test: SPR competition; competitor FGF23^28-251 immobilized, fixed FGFR1c-Klotho complex
Description: Increasing concentrations of FGF23²⁸⁻²⁵¹ (0-50 nM) were mixed with a fixed concentration of 1:1 complex of the ectodomains of FGFR1c and Klotho (15 nM and 20 nM, respectively) in HBS-EP buffer, and the mixtures were passed over the FGF23 chip. In the other—reverse—assay, FGF23¹⁸⁰⁻²⁵¹ was immobilized on a chip (˜48.4 fmole/mm² of flow channel). Increasing concentrations of FGF23²⁸⁻²⁵¹ (0-50 nM) were mixed with a fixed concentration of 1:1 complex of the ectodomains of FGFR1c and Klotho (20 nM) in HBS-EP buffer, and the mixtures were passed over the chip. As a control, competition of FGF23 C-terminal tail peptide in solution with immobilized FGF23 C-terminal tail peptide for binding to the binary FGFR1c-Klotho complex was studied. Increasing concentrations of FGF23¹⁸⁰⁻²⁵¹ (0-400 nM) were mixed with a fixed concentration of 1:1 complex of the ectodomains of FGFR1c and Klotho (20 nM) in HBS-EP buffer, and the mixtures were passed over the FGF23¹⁸⁰⁻²⁵¹ chip.
To fully nail down that the C-terminal tail of FGF23 mediates FGF23 binding to the binary FGFR1c-Klotho complex, a fixed concentration of FGFR1c-Klotho was mixed with increasing concentrations of FGF23¹⁸⁰⁻²⁵¹, and the mixtures were passed over the FGF23 chip. Mixtures of FGF23²⁸⁻²⁵¹ with FGFR1c-Klotho were used as a control. […] Similar results were obtained using the “reverse” SPR assay format, where FGF23¹⁸⁰⁻²⁵¹ was immobilized on a chip and mixtures of a fixed concentration of FGFR1c-Klotho complex with increasing concentrations of FGF23²⁸⁻²⁵¹ were passed over the chip (FIG. 3E). Mixtures of FGF23¹⁸⁰⁻²⁵¹ with FGFR1c-Klotho were used as a control (FIG. 3F). To verify the specificity of the interaction between the FGF23 C-terminal tail and the FGFR1c-Klotho complex, the C-terminal tail peptide of FGF21 and FGFR1c-Klotho were mixed at molar ratios of 6:1 and 10:1, and the mixtures were injected over a FGF23 chip.

molar excess over FGFR1c-Klotho complex at half-maximum inhibition: 5.7 fold molar excess
B1: FGF23 C-terminal region peptide (S180 to S205), FGF23^180-205 (peptide)
peptide: SAEDDSERDPLNVLKPRARMTPAPAS
notes: Made by solid phase synthesis (GenScript)

molar excess over FGFR1c-Klotho complex at half-maximum inhibition: 3.3 fold molar excess
B2: N-terminally hexahistidine-tagged 72-amino acid C-terminal tail of human FGF23 (S180 to I251), FGF23^180-251 (peptide)
peptide: SAEDDSERDPLNVLKPRARMTPAPASCSQELPSAEDNSPMASDPLGVVRGGRVNTHAGGTGPEGCRPFAKFI
notes: Expressed in E. coli; also called FGF23 C-terminal tail peptide; C-terminal tail of FGF23; not shown: N-terminal hexahistidine tag (six His)
